Source: article PMC2760644 (Journal of molecular biology, 2009)

Molecular target: F-actin (chicken, UniProt P68139 1-377)
Assay: co-sedimentation

Kd: > 20 mM
B1: supervillin headpiece, wild type (domain or fragment)
chain: LAKLCKTIYPLADLLARPLPEGVDPLKLEIYLTDEDFEFALDMTRDEYNALPAWKQVNLKKAKGLF
